In patent US20260125465A1 (BROAD INSTITUTE, published 2026):

B1: Ab_119706 VHH antibody, 6×His tagged, purified (VHH)
VHH: QLQLVESGGGLVQPGGSLRLSCAASGFTLDYYAIGWFRQAPGKEREGVSYISSSGGSTNYADSVKGRFTISRDNAKNTVYLQMNSLKPEDTGVYSCAAAGGYGNSSRYWGQGTSVTVSH
notes: Produced by Genscript in a mammalian cell line and purified
B2: Ab_119704 VHH antibody, 6×His tagged, purified (VHH)
VHH: QLQLVESGGGLVQPGGSLRLSCAASGFTLDNYAIGWFRQAPGKEREGVSSISSSGGSTNYADSVKGRFTVSRDNAKHTVYLQMNSLKPEDTAVYYCAGVGDYGRRAMGQGTSVTVSH
notes: as for B1
B3: Ab_113415 VHH antibody, 6×His tagged, purified (VHH)
VHH: QVQLVESGGGLVQPGGSLRLSCAASGSMFSINAVAWYRQAPGEQREPVAAMTSGGSTIYADSVKGRFTISRDNAKNTVYLQMSSLKPEDTAVYYCNGGWSLAMDYWGQGTSVTVSH
notes: Produced by Genscript in a mammalian cell line and purified; The tag is written after the VHH only by convention
B4: Ab_119707 VHH antibody, 6×His tagged, purified (VHH)
VHH: EVQLVESGGGSVQAGETLRLSCTASGFTFDDSDMGWYRQAPGDECELVSTISSDGSTNYADSVKGRFTISQDNAKNTVYLQMTSLKPEDTAIYSCRTMASRIGCWGQGTLVTVSH
notes: as for B1
B5: Ab_119702 VHH antibody, 6×His tagged, purified (VHH)
VHH: DVQLVESGGGLVQAGGSLRLSCAASGFPYFSCCMSWHRQAPGKDRELVSSISSDGSTHYADSVRGRFTISKGNARNTLYLQMNSLKPEDTAVYFCAASPRQLGPYYAMDYWGQGTSVTVSH
notes: as for B1

These binders were tested against T1, soluble MSLN (Glu2-6-Gly580, Acro Bio Systems, MSN-H82E9-25 ug) (UniProt Q13421 296-580) (assay: biolayer interferometry (BLI) with soluble MSLN).
T1 construct: range 296-580; Detected with an anti-His secondary antibody in the CAR-T staining, so it carries a His tag; also called soluble mesothelin
Protocol: Experiments were undertaken to characterize the ability of the anti-MSLN VHH antibodies to bind MSLN. 6×His tagged (SEQ ID NO: 93) VHH antibodies were produced by Genscript in a mammalian cell line and purified. The purified VHH antibodies were tested using a flow cytometry-based assay to see how well they bound mesothelin expressed on cells (FIG. 9A). […] Also, biolayer interferometry (BLI) was used to accurately assess the binding affinity (Kd) of the anti-MSLN VHH antibodies (Table 5). BLI was conducted with soluble MSLN (Glu2-6-Gly580, Acro Bio Systems, MSN-H82E9-25 ug). […] After exposure to the media containing the soluble MSLN, an anti-His secondary antibody was used to detect CAR-T cells binding the MSLN. T cells expressing CARs containing the anti-MSLN VHH antibodies or SS1 as antigen binding domains bound the soluble MSLN.

T1 sequence (Q13421 other isoform, or with tags, fused parts or gaps limits assumed): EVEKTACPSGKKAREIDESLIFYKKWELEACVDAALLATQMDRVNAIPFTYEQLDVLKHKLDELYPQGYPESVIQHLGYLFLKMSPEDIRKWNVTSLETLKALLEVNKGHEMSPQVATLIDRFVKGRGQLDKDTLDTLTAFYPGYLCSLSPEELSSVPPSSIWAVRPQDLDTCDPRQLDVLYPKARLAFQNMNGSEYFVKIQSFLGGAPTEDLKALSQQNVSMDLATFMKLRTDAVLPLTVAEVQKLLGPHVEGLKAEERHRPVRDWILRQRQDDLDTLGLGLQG

Kd [nM] | Binder
11.5 | B1
4.49 | B2
3.69 | B3
5.95 | B4
5.32 | B5
